From patent US20220411504A1 (Janssen / Centocor, published 2022)

T1: DLL3 on tumor cells (SHP-77, HCC1833, G361) (human, UniProt Q9NYJ7 27-618)
T1 sequence: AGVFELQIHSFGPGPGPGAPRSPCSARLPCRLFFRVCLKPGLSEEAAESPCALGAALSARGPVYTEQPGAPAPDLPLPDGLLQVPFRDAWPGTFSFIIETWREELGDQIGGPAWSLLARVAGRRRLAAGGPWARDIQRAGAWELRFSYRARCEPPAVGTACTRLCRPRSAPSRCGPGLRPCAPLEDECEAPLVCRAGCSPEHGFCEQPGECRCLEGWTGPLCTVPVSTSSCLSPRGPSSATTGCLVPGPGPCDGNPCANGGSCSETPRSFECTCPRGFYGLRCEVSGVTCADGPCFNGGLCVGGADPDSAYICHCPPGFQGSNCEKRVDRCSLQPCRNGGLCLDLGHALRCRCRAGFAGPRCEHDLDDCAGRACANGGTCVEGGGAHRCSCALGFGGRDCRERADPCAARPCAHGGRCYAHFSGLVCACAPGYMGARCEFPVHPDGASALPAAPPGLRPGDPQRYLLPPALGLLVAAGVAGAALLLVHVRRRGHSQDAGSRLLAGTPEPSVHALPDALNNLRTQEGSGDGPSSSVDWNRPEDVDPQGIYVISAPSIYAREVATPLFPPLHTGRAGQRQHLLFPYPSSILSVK

T2: recombinant human DLL3 (human, UniProt Q9NYJ7 27-492)
T2 construct: also called DLL3 antigen; Delta-like protein 3
T2 sequence: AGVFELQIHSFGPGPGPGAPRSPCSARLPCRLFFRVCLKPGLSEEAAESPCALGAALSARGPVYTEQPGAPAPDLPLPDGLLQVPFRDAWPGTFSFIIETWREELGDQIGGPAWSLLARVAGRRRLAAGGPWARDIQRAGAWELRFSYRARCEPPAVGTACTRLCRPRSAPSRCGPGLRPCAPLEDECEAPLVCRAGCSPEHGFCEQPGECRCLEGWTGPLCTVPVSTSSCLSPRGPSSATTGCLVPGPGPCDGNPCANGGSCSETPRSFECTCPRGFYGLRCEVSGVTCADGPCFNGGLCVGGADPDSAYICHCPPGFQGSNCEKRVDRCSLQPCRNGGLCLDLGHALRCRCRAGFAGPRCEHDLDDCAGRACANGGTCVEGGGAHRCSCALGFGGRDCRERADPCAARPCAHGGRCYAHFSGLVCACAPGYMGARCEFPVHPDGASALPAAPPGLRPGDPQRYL


What was measured:
[1] = biological target: T1, DLL3 on tumor cells (SHP-77, HCC1833, …); test: cell-based or functional assay
recombinant human DLL3 = biological target: T2, recombinant human DLL3; test: SPR (Biacore T200), antibody captured by goat anti-Fc, DLL3 titrated
Protocol: The binding affinity of anti-DLL3×CD3 antibodies to the recombinant human DLL3 was determined by surface plasmon resonance (SPR) using a Biacore T200 instrument. […] The association was monitored for 2 minutes and the and dissociation for 5 or 60 minutes, using a flow rate of 100 μL/min. Raw binding data was referenced by subtracting the analyte binding signals from blanks and analyzed using a 1:1 Langmuir binding model using the Biacore Insight evaluation software to obtain the kinetics which were used to calculate the binding affinity.
The antibodies were captured using an anti-human Fc antibody and the antigens were injected in solution.

recombinant HLA-G [2] = biological target: recombinant HLA-G (human); test: ELISA, scFv in E. coli supernatant on recombinant HLA-G
Protocol: (§1) The original and germline-optimized v-regions were screened for thermal stability in scFv format. Briefly, v-regions were cloned into scFv format and were expressed in E. coli. The culture supernatants were assessed by ELISA for their abilities to bind recombinant HLA-G. Supernatant samples were also heat shocked at either 55, 60, or 65° C., and the binding of the heat-shocked samples was compared to the unheated samples. This analysis provided an estimate of the thermal stability of the v-regions when formatted as scFv.
(§2) V-regions were expressed as scFv in the supernatant from E. coli and were analyzed for their ability to bind recombinant HLA-G by ELISA. Samples were tested at room temperature or after heat treatment for 10 min at 55, 60, or 65° C.

recombinant HLA-G [3] = biological target: recombinant HLA-G (human); test: ELISA after 10 min heat treatment of the scFv supernatant
Protocol: as §1, §2

Binder | Cytotoxicity, % lysis of SHP-77 cells (whole PBMCs, 1:1 ET, 30 nM) [1] [%] | Kd (recombinant human DLL3) [nM] | Room temperature binding signal (recombinant HLA-G [2]) | % Binding retained 55° C. (recombinant HLA-G [3]) [%] | % Binding retained 60° C. (recombinant HLA-G [3]) [%] | % Binding retained 65° C. (recombinant HLA-G [3]) [%]
DL3B582 (bispecific antibody, also called CD3W245-LH-scFv; DL3B279-Fab) heavy: QVQLVQSGAEVKKPGASVKVSCKASGNTFTNYYIHWVRQAPGQGLEWMGIINPSGGSTSYAQKLQGRMTMTRDTSTSTVYMELSSLRSEDTAVYFCARQGPFIGDAFDIWGQGTMVTVSSASTKGPSVFPLAPSSKSTSGGTAALGCLVKDYFPEPVTVSWNSGALTSGVHTFPAVLQSSGLYSLSSVVTVPSSSLGTQTYICNVNHKPSNTKVDKKVEPKSCDKTHTCPPCPAPEAAGGPSVFLFPPKPKDTLMISRTPEVTCVVVSVSHEDPEVKFNWYVDGVEVHNAKTKPREEQYNSTYRVVSVLTVLHQDWLNGKEYKCKVSNKALPAPIEKTISKAKGQPREPQVYVLPPSREEMTKNQVSLLCLVKGFYPSDIAVEWESNGQPENNYLTWPPVLDSDGSFFLYSKLTVDKSRWQQGNVFSCSVMHEALHNHYTQKSLSLSPG light: DIQMTQSPSSLSASVGDRVTITCRASQGISNYLAWFQQKPGKAPKSLIYAASSLQSGVPSKFSGSGSGTDFTLTISSLQPEDFATYYCQQYNSYPYTFAQGTKLEIKRTVAAPSVFIFPPSDEQLKSGTASVVCLLNNFYPREAKVQWKVDNALQSGNSQESVTEQDSKDSTYSLSSTLTLSKADYEKHKVYACEVTHQGLSSPVTKSFNRGEC scFv: DIQMTQSPSSLSASVGDRVTITCRARQSIGTAIHWYQQKPGKAPKLLIKYASESISGVPSRFSGSGSGTDFTLTISSLQPEDFATYYCQQSGSWPYTFGQGTKLEIKGGSEGKSSGSGSESKSTGGSEVQLVESGGGLVKPGGSLRLSCAASGFTFSRYNMNWVRQAPGKGLEWVSSISTSSNYIYYADSVKGRFTFSRDNAKNSLDLQMSGLRAEDTAIYYCTRGWGPFDYWGQGTLVTVSSEPKSSDKTHTCPPCPAPEAAGGPSVFLFPPKPKDTLMISRTPEVTCVVVSVSHEDPEVKFNWYVDGVEVHNAKTKPREEQYNSTYRVVSVLTVLHQDWLNGKEYKCKVSNKALPAPIEKTISKAKGQPREPQVYVYPPSREEMTKNQVSLTCLVKGFYPSDIAVEWESNGQPENNYKTTPPVLDSDGSFALVSKLTVDKSRWQQGNVFSCSVMHEALHNHYTQKSLSLSPG | 87.3 | 0.016 | – | – | – | –
DL3B583 (bispecific antibody, also called CD3W245-HL-scFv; DL3B279-Fab) heavy: QVQLVQSGAEVKKPGASVKVSCKASGNTFTNYYIHWVRQAPGQGLEWMGIINPSGGSTSYAQKLQGRMTMTRDTSTSTVYMELSSLRSEDTAVYFCARQGPFIGDAFDIWGQGTMVTVSSASTKGPSVFPLAPSSKSTSGGTAALGCLVKDYFPEPVTVSWNSGALTSGVHTFPAVLQSSGLYSLSSVVTVPSSSLGTQTYICNVNHKPSNTKVDKKVEPKSCDKTHTCPPCPAPEAAGGPSVFLFPPKPKDTLMISRTPEVTCVVVSVSHEDPEVKFNWYVDGVEVHNAKTKPREEQYNSTYRVVSVLTVLHQDWLNGKEYKCKVSNKALPAPIEKTISKAKGQPREPQVYVLPPSREEMTKNQVSLLCLVKGFYPSDIAVEWESNGQPENNYLTWPPVLDSDGSFFLYSKLTVDKSRWQQGNVFSCSVMHEALHNHYTQKSLSLSPG light: DIQMTQSPSSLSASVGDRVTITCRASQGISNYLAWFQQKPGKAPKSLIYAASSLQSGVPSKFSGSGSGTDFTLTISSLQPEDFATYYCQQYNSYPYTFAQGTKLEIKRTVAAPSVFIFPPSDEQLKSGTASVVCLLNNFYPREAKVQWKVDNALQSGNSQESVTEQDSKDSTYSLSSTLTLSKADYEKHKVYACEVTHQGLSSPVTKSFNRGEC scFv: EVQLVESGGGLVKPGGSLRLSCAASGFTFSRYNMNWVRQAPGKGLEWVSSISTSSNYIYYADSVKGRFTFSRDNAKNSLDLQMSGLRAEDTAIYYCTRGWGPFDYWGQGTLVTVSSGGSEGKSSGSGSESKSTGGSDIQMTQSPSSLSASVGDRVTITCRARQSIGTAIHWYQQKPGKAPKLLIKYASESISGVPSRFSGSGSGTDFTLTISSLQPEDFATYYCQQSGSWPYTFGQGTKLEIKEPKSSDKTHTCPPCPAPEAAGGPSVFLFPPKPKDTLMISRTPEVTCVVVSVSHEDPEVKFNWYVDGVEVHNAKTKPREEQYNSTYRVVSVLTVLHQDWLNGKEYKCKVSNKALPAPIEKTISKAKGQPREPQVYVYPPSREEMTKNQVSLTCLVKGFYPSDIAVEWESNGQPENNYKTTPPVLDSDGSFALVSKLTVDKSRWQQGNVFSCSVMHEALHNHYTQKSLSLSPG | 99.8 | 0.016 | – | – | – | –
DL3B587 (bispecific antibody, human IgG1, kappa, L234A L235A, also called CD3W245-Fab; DL3B279-LH-scFv) scFv: DIQMTQSPSSLSASVGDRVTITCRASQGISNYLAWFQQKPGKAPKSLIYAASSLQSGVPSKFSGSGSGTDFTLTISSLQPEDFATYYCQQYNSYPYTFAQGTKLEIKGGSEGKSSGSGSESKSTGGSQVQLVQSGAEVKKPGASVKVSCKASGNTFTNYYIHWVRQAPGQGLEWMGIINPSGGSTSYAQKLQGRMTMTRDTSTSTVYMELSSLRSEDTAVYFCARQGPFIGDAFDIWGQGTMVTVSSEPKSSDKTHTCPPCPAPEAAGGPSVFLFPPKPKDTLMISRTPEVTCVVVSVSHEDPEVKFNWYVDGVEVHNAKTKPREEQYNSTYRVVSVLTVLHQDWLNGKEYKCKVSNKALPAPIEKTISKAKGQPREPQVYVLPPSREEMTKNQVSLLCLVKGFYPSDIAVEWESNGQPENNYLTWPPVLDSDGSFFLYSKLTVDKSRWQQGNVFSCSVMHEALHNHYTQKSLSLS heavy: EVQLVESGGGLVKPGGSLRLSCAASGFTFSRYNMNWVRQAPGKGLEWVSSISTSSNYIYYADSVKGRFTFSRDNAKNSLDLQMSGLRAEDTAIYYCTRGWGPFDYWGQGTLVTVSSASTKGPSVFPLAPSSKSTSGGTAALGCLVKDYFPEPVTVSWNSGALTSGVHTFPAVLQSSGLYSLSSVVTVPSSSLGTQTYICNVNHKPSNTKVDKKVEPKSCDKTHTCPPCPAPEAAGGPSVFLFPPKPKDTLMISRTPEVTCVVVSVSHEDPEVKFNWYVDGVEVHNAKTKPREEQYNSTYRVVSVLTVLHQDWLNGKEYKCKVSNKALPAPIEKTISKAKGQPREPQVYVYPPSREEMTKNQVSLTCLVKGFYPSDIAVEWESNGQPENNYKTTPPVLDSDGSFALVSKLTVDKSRWQQGNVFSCSVMHEALHNHYTQKSLSLSPG light: DIQMTQSPSSLSASVGDRVTITCRARQSIGTAIHWYQQKPGKAPKLLIKYASESISGVPSRFSGSGSGTDFTLTISSLQPEDFATYYCQQSGSWPYTFGQGTKLEIKRTVAAPSVFIFPPSDEQLKSGTASVVCLLNNFYPREAKVQWKVDNALQSGNSQESVTEQDSKDSTYSLSSTLTLSKADYEKHKVYACEVTHQGLSSPVTKSFNRGEC | 83.3 | 0.031 | – | – | – | –
MHGB738 v-region as scFv (E. coli supernatant) (scFv, V domains shown, One scFv chain; also called MHGB738 (GL optimized B688)) VH: QVQLQQSGPGLVKPSQTLSLTCAISGDSVSSNRAAWNWIRQSPSRGLEWLGRTYYRSKWYNDYAVSVKSRITINPDTSKNQISLQLNSVTPEDTAVYYCARVRPGIPFDYWGQGTPVTVSS VL: not shown | – | – | 5.76e+06 | 14 | 2 | 1
MHGB665 v-region as scFv (E. coli supernatant) (scFv, V domains shown, One scFv chain) VH: QVQLQQSGPGLVKPSQTLSLTCAISGDSVSSNSAAWNWIRQSPSRGLEWLGRTYYRSKWYNDYAVSVKSRITINPDTSKNQISLQLNSVTPEDTAVYYCAGDRRYGIVGLPFAYWGQGTLVTVSS VL: not shown | – | – | 1.52e+07 | 103 | 122 | 11
MHGB694 v-region as scFv (E. coli supernatant) (scFv, V domains shown, One scFv chain) VH: EVQLLESGGGLVQPGGSLRLSCAASGFTFSSYAMHWVRQAPGKGLDWVSGISGSGFSTYYVDSVKGRFTISRDNSKHTLYLQMNSLRAEDTAVYYCAKDNLVAGTVFDYWGQGTLVTVSS VL: not shown | – | – | 3.07e+06 | 85 | 9 | 4
MHGB737 v-region as scFv (E. coli supernatant) (scFv, V domains shown, One scFv chain; also called MHGB737 (GL optimized B694)) VH: EVQLLESGGGLVQPGGSLRLSCAASGFTFSSYAMHWVRQAPGKGLEWVSGISGSGFSTYYVDSVKGRFTISRDNSKNTLYLQMNSLRAEDTAVYYCAKDNLVAGTVFDYWGQGTLVTVSS VL: not shown | – | – | 2.75e+06 | 84 | 80 | 48
